In patent publication US20260217847A1 (published 2026):

biological target: T1, human recombinant TfR1 protein (amino acids 89-760) (human, UniProt P02786 89-760); test: ELISA
T1 sequence (P02786 89-760): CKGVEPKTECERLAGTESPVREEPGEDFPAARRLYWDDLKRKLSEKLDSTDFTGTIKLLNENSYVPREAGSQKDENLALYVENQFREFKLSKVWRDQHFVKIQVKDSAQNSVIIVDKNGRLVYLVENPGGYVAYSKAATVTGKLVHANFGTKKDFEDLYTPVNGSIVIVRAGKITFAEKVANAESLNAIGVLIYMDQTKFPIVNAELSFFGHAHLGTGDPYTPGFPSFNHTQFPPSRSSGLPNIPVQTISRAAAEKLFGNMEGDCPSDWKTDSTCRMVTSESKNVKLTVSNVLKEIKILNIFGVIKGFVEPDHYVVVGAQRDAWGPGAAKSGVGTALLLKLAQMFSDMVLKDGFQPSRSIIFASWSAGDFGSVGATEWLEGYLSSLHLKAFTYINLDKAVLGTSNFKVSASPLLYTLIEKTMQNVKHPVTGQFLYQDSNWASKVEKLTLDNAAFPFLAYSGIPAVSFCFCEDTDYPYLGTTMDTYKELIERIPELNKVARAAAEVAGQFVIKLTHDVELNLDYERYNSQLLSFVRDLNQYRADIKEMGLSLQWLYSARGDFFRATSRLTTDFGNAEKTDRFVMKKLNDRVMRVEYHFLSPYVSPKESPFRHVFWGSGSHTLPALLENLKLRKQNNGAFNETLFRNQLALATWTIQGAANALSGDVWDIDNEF

EC50 | Binder
0.0592 nM | anti-humanized TfR1 single-domain antibody-Fc fusion antibody 4D11-hFC1 (Fc fusion) chain (part 1 of 2): ESGGGLVQPGESLRLSCVASGSIWSIYTMGWYRQAPGKQRDFVASITRDSTRTLESVKDRFIISRDNAKNTLYLQMNSLKPEDTAVYYCHAITSLGEYWGQGTQVTVSS
0.0644 nM | anti-humanized TfR1 single-domain antibody-Fc fusion antibody 4C5-hFC1 (Fc fusion) chain (part 1 of 2): ESGGGLVQPGESLRLSCAASGSIWSIYTMGWYRQAPGLQRDFVGSIAREGGRRYAESVKDRFTISRDNAKNTMYLQMNSLKREDTAVYYCNAITSLGEYWGQGTQVTVSS

biological target: T1, human recombinant TfR1 protein (amino …); test: ELISA; remark: another data set of the same source

EC50 | Binder
0.0396 nM | anti-humanized TfR1 single-domain antibody-Fc fusion antibody 2H7-hFC1 (Fc fusion) chain (part 1 of 2): ESGGGLVQPGESLRLSCVASGSIWSIYTMGWYRQAPGKQRDFVASITGDSTRTLESVKDRFIISRDNTKNTLYLQMNSLKPEDTAVYYCQAITSLGEYWGQGTQVTVSS
0.0962 nM | anti-humanized TfR1 single-domain antibody-Fc fusion antibody 8E10-hFC1 (Fc fusion) chain (part 1 of 2): ESGGGLVQAGGSLRLSCAFSGPPFSTYGMGWFRQAPGKEREFVATISGSGFTTTYADSVKGRFTISRDNAKNTVYLQMNSLKPGDTAVYYCAAGVLDGTNWHEYDYWGQGTQVTVSS

biological target: T1, human recombinant TfR1 protein (amino …); test: ELISA; remark: another data set of the same source

Binder | EC50
anti-humanized TfR1 single-domain antibody-Fc fusion antibody 5A3-hFC1 (Fc fusion) chain (part 1 of 2): ESGGGLVQAGGSLTLSCAVSRRAFNTKAMGWFRQAPGKEREFVATISWSGFSTNYADSVKGRFTISRDNAKNTVYLQMNSLKPGDTAVYYCAAGVLDGTNWHEYDYWGQGTQVTVSS | 0.0761 nM
anti-humanized TfR1 single-domain antibody-Fc fusion antibody 7G5-hFC1 (Fc fusion) chain (part 1 of 2): ESGGGSVQPGGSLRLSCAVSGSIFSIDTMAWYRQAPGKQRELVAAITKGGSRNYADSVKGRFTISRDNAKNTVYLQMNSLKPEDTAVYYCLADRLFRDRSWGQGTQVTVSS | 0.0724 nM
anti-humanized TfR1 single-domain antibody-Fc fusion antibody 7G10-hFC1 (Fc fusion) chain (part 1 of 2): ESGGGLVQAGASLKLSCNGSGRTFISYAMGWFRQAPGKQREFVAAERWSGSGIYYADSLKGRFTISRDNAKNTVYLEMNNLKPEDTAVYYCAAREGGLLHVATSYDYWGQGTQVTVSS | 0.0854 nM
anti-humanized TfR1 single-domain antibody-Fc fusion antibody 5D1-hFC1 (Fc fusion) chain (part 1 of 2): ESGGGLVQPGESLRLSCVASGSIWSIYTMGWYRQAPGKQRDFVASITRDGGRRHAESVKDRFTISRDNAKNTLYLQMNSLKPEDTAVYSCLAITSLGEYWGQGTQVTVSS | 0.0595 nM
anti-humanized TfR1 single-domain antibody-Fc fusion antibody 5D3-hFC1 (Fc fusion) chain (part 1 of 2): ESGGGLVEPGGSLRLSCAASGNIFSINNMYWHRQAPGKQRELVGGITRGGITNYVDSVKGRFTISRDNAKNTVYLQMNSLKPEDTAVYFCNAHPWRLGIADYWGQGTQVTVSS | 0.0861 nM

More lines, now with the values ahead:

EC50 | Binder
0.151 nM | anti-humanized TfR1 single-domain antibody-Fc fusion antibody 7D10-hFC1 (Fc fusion) chain (part 1 of 2): ESGGGLVQPGGSLRLSCATSGGTFEMYAMAWFRQAPGKDREGVAGFSWRDSSTTYYSDSVKGRFTISRDNAKNTVYLQMNSLKPEDTAVYYCAARPYVSRWSESSGYDYWGQGTQVTVSS
0.0521 nM | anti-humanized TfR1 single-domain antibody-Fc fusion antibody 7A3-hFC1 (Fc fusion) chain (part 1 of 2): ESGGGLVQPGESLRLSCVASGSIWSIYTMGWYRQAPGKQRDFVASITRDSGRRYAESVKDRFTISRDNAKNTLYLQTNSLKPEDTAVYYCHAITSLGEYWGQGTQVTVSS
